Results published in patent publication US20250277045A1 (KEYMED BIOSCIENCES, published 2025).

T1: human BCMA on cells (CHO-hBCMA clone 2C2; NCI-H929; RPMI-8226) (human, UniProt Q02223 1-184)
T1 sequence (looked up): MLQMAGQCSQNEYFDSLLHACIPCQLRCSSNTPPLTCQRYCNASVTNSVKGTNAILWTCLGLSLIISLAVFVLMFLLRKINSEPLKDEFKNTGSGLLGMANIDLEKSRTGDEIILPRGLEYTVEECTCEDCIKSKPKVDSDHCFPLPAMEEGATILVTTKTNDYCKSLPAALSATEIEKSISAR

B1: 29A11 Fab (Fab, V domains shown)
VH: EIQLVQSGPELKKPGETVKISCKASGYIFTNFGMNWVRQAPGKALKWMGWINTYTGEQIYADDFKGRFAFSLETSASTAYLQINNLKNEDTATYFCARGEIYYGYDVGFVYWGQGTLVTVSA
VL: DIVLTQSPASLAVSLGQRATISCRASKSVSTSGYSYMHWYQQKPGQPPKLLIYLASNLESGVPARFSGSGSGTDFTLNIHPVEEEDAATYYCQHSRELPWTFGGGTKLEIK
notes: Murine BCMA Fab, Ni-NTA purified
B2: 3G11 Fab (Fab, V domains shown)
VH: EIQLVQSGPELKKPGETVKISCKASGYIFTNFGMNWVRQAPGKALKWMGWINTYTGEQIYADDFKGRFAFSLETSASTAYLQINNLKNEDTATYFCARGEIYYGYDVGFVYWGQGTLVTVSA
VL: DIVLTQSPASLTVSLGQRATISCRASKSVSTSGYSYMHWYQQKPGQPPKLLIYLASDLESGVSARFSGSGSGTDFTLNIHPVEEEDAATYYCQHSRELPWTFGGGTKLEIK
notes: Murine BCMA Fab from phage library, expressed in TG1 periplasm, purified by Ni-NTA
B3: 6G5 Fab (Fab, V domains shown)
VH: EIQLVQSGPELKKPGETVKISCKASGYIFTNFGMNWVRQAPGKALKWMGWINTYTGEQIYADDFKGRFAFSLETSASTAYLQINNLKNEDTATYFCARGEIYYGYDVGFVYWGQGTLVTVSA
VL: DIVLTQSPASLAISLGQRATISCRASKSVTTSGYSYIHWYQQKPGQPPKLLIYLASDLEAGVPARFSGSGSGTDFTLNIHPVEEEDAATYYCQHSRELPWTFGGGTKLELK
notes: as for B1
B4: 15H10 Fab (Fab, V domains shown)
VH: EVQLQQSGPELKKPGETVKISCKASGYTFTNFGMNWVRQTPGKALKWMGWINTYTGDLIYGDDFKGRFAFSLETSASTAYLQINNLKNEDTATYFCARGEIYYGYDVGFAYWGQGTLVTVSA
VL: DIVLTQSPASLAVSLGQRATISCRASKSVSTSGYSYMHWYQQKPGQPPKLLIYLASNLESGVPARFSGSGSGTDFTLNIHPVEEEDAATYYCQHSRELPWTFGGGTKLEIK
notes: as for B1
B5: 16B9 Fab (Fab, V domains shown)
VH: EIQLVQSGPELKKPGETVKISCKASGYIFTNFGMNWVRQTPGKALKWMGWINTYTGETIYADDFKGLFAFSLEVPASTAYLQINNLKNEDTATYFCARGEIYYGFDVGFAYWGQGTLVTVSA
VL: DIVLTQSPASLTVSLGQRATISCRASKSVSTSGYSYIHWYQQKPGQPPKLLIYLASDLESGVPARFSGSGSGTDFTLNIHPVEEEDAATYYCQHSRELPWTFGGGTKLELK
notes: as for B1
B6: 23F8 Fab (Fab, V domains shown)
VH: EIQLVQSGPELKKPGETVKISCTASGYTFTNFGMNWVRQAPGKALRWMGWINTYTGDQIYADDFKGRFAFSLETSASTAYLQINNLKNEDTATYFCARGEIYYGYDVGFVYWGQGTLVTVSA
VL: DIVLTQSPASLAVSLGQRATISCRASKSVSTSGYSYMHWYQQKPGQPPKLLIYLASNLESGVPARFSGSGSGTDFTLNIHPVEEEDAATYYCQHSRELPWTFGGGTKLEIK
notes: as for B1
B7: 34G2 Fab (Fab, V domains shown)
VH: EVQLQQSGPELRKPGETVKISCKASGYTFTNYGMNWVKQTPGKGLKWMGWINTYTGERIYADDFKGRFAFSLETSASTAYLQINNLKNEDTATYFCARGEIYYGYDVGFVYWGQGTLVTVSA
VL: DIVLTQSPASLVVSLGQRATISCRASKSVSTSGYSYMHWYQQKPGQPPKLLIYLASNLESGVPARFSGSGSGTDFTLNIHPVEEEDAATYYCQHSRELPWTFGGGTRLEIK
notes: as for B1
B8: 38D9 Fab (Fab, V domains shown)
VH: EVQLQQSGPELKKPGETVKISCKASGYIFTNFGMNWVRQAPGKALKWMGWINTYTGEQIYADDFKGRFAFSLETSASTAYLQINNLKNEDTATYFCARGEIYYGYDVGFVYWGQGTLVTVSA
VL: DIVLTQSPASLTVSLGQRATISCGASKSVSTSGYSYMHWYQQKPGQPPKLLIYLGSDLESGVPARFSGSGSGTDFTLNIHPVEEEDAATYYCQHSRELPWTFGGGTKLEIK
notes: as for B1
B9: 40C6 Fab (Fab, V domains shown)
VH: EIQLVQSGPELKKPGETVKISCKASGYIFTNFGMNWVRQAPGKALKWMGWINTYTGEQIYADDFKGRFAFSLETSASTAYLQINNLKNEDTATYFCARGEIYYGYDVGFVYWGQGTLVTVSA
VL: DIVLTQSPASLAISLGQRATISCRASRSVTTSGYSYIHWYQQKPGQPPKLLIYLASDLEAGVPARFSGSGSGTDFTLNIHPVEEEDAATYYCQHSRELPWTFGGGTKLEIK
notes: as for B1
B10: 23G9 Fab (Fab, V domains shown)
VH: EVQLQQSGTVLTRPGASVKLSCKASGYSFSSYWMHWLKQRPGQGLEWIGAIYPGNSRTTYNQKFKGEAKLTADTSASTAYMDLSSLTNADSAVYFCTREETYWGQGTLVTVSA
VL: DVVMTQTPLSLSVTIGQPASISCKSSQGLLDSYGVTYLNWLFQRPGQPPKRLIYLVSELDSGVPDRFTGSGSGTDFTLRISRVEAEDLGIYYCWQGSHFPLTFGAGTKLELK
notes: as for B1
B11: 38E2 Fab (Fab, V domains shown)
VH: QVQLQQSGAELVRPGTSVKMSCKAAGYTFTNYWIGWVKQRPGHGLEWIGDIYPGSGDTNYNGKFKGKATLAADISSNAAYMQLSSLTSEDSAIYYCARSYYRNDAASFAYWGQGTLVTVSA
VL: DIVMTQSHKFMSTSVGDRVNITCKASQDVDTAVAWYQQKPSQSPKLLIYWTSTRHTGVPDRFTGSGSGTDFTLTISNVQSEDLADYFCQQFSSYPLTFGAGTKLELK
notes: as for B1
B12: 38F9 Fab (Fab, V domains shown)
VH: EIQLVQSGPELKKPGETVKISCKASGYIFTNFGMNWVRQAPGKALKWMGWINTYTGEQIYADDFKGRFAFSLETSASTAYLQINNLKNEDTATYFCARGEIYYGYDVGFVYWGQGTLVTVSA
VL: NIVLTQSPASLAVSLGQRATISCRASESVDSSGNSFMHWYQQKPGQPPKLLIYLESNLESGVPARFSGSGSRTDFTLTIEPVEADDAATYYCQQSNEDPWTFGGGTKLEIK
notes: as for B1
B13: 15G9 Fab (Fab, V domains shown)
VH: QVQLQQSGPELVKPGASVNLSCKASGYTFTNYVIHWVKQKPGQGLEWIGYTIPYTDVTKYNEKFKAKATLTSDKSSSTAFMELSSLTSEDSAVYYCARYDFDGYFDYWGQGTTLTVSS
VL: DIVMTQAAFSNPVTLGTSASISCRSSKSLLHSNGITYLYWYLQKPGQSPQLLIYQMSNLASGVPDRFSSSGSGTDFTLRISRVEAEDVGVYYCAQNLELPWTFGGGTKLELK
notes: as for B1
B14: h38E2-CD3 (bispecific antibody, V domains shown)
VH 1: QVQLVQSGAEVKKPGSSVKVSCKASGYTFTNYWIGWVREAPGQGLEWMGDIYPGSGDTNYNGKFQGRVTLTADISSNTAYMELSSLRSEDTAVYYCARSYYRNDAASFAYWGQGTLVTVSS
VL 1: DIQMTQSPSSLSASVGDRVTITCQASQDVDTAVAWYQKKPGKAPKLLIYWTSTRHTGVPSRFSGSGSGTDFTFTISSLQPEDIATYFCQQFSSYPLTFGQGTKVEIK
VH 2: EVQLVESGGGLVQPGGSLRLSCAASGFTFNTYAMNWVRKAPGKGLEWVGRIRSKYNNYATYYADSVKDRFTISRDDSKNSLYLQMNSLKTEDTAVYYCVRHGNFGNSYVSWFAYWGQGTLVTVSS
VL 2: QAVVTQEPSLTVSPGGTVTLTCRSSTGAVTTSNYANWVQEKPGQAPRGLIGGTNKRAPWTPARFSGSLLGGKAALTITGAQAEDEAEYYCVLWYSNLWVFGGGTKLTVL
B15: h23F8-CD3 (bispecific antibody, V domains shown)
VH 1: QVQLVQSGSELKKPGASVKVSCKASGYTFTNFGMNWVREAPGQGLEWMGWINTYTGDQIYADDFKGRFAFSLDTSASTAYLQISSLKAEDTAVYFCARGEIYYGYDVGFVYWGQGTLVTVSS
VL 1: DIVLTQSPASLAVSPGQRATITCRASKSVSTSGYSYMHWYQKKPGQPPKLLIYLASNLESGVPARFSGSGSGTDFTLTINPVEANDTANYYCQHSRELPWTFGQGTKVEIK
VH 2: EVQLVESGGGLVQPGGSLRLSCAASGFTFNTYAMNWVRKAPGKGLEWVGRIRSKYNNYATYYADSVKDRFTISRDDSKNSLYLQMNSLKTEDTAVYYCVRHGNFGNSYVSWFAYWGQGTLVTVSS
VL 2: QAVVTQEPSLTVSPGGTVTLTCRSSTGAVTTSNYANWVQEKPGQAPRGLIGGTNKRAPWTPARFSGSLLGGKAALTITGAQAEDEAEYYCVLWYSNLWVFGGGTKLTVL

Molecular target: T2, human BCMA-hFc kih monovalent recombinant protein (human, UniProt P0DOX5 223-449 = IgG part)
T2 construct: Knob-into-hole heterodimer with one BCMA arm, expressed in HEK293E; also called human BCMA-hFc recombinant protein
Assay: SPR (Biacore T200), BCMA-hFc captured on Protein A chip, Fab as analyte, 1:1 Langmuir
Text: Kinetic constants were fitted using Biacore T200 evaluation software with a Langmuir 1:1 kinetics model.
For Upregulation of CD25 (%), CD4+T in this document: test concentration or dose not given here.
For Upregulation of CD25 (%), CD8+T in this document: test concentration or dose not given here.
For Upregulation of CD69 (%), CD4+T in this document: test concentration or dose not given here.
For Upregulation of CD69 (%), CD8+T in this document: test concentration or dose not given here.

Binder	Kd [nM]	koff [s⁻¹]	kon [M⁻¹ s⁻¹]
B1	3.2	0.000243	76400
B2	13	0.000432	33300
B3	2.1	6.13e-05	29400
B4	18.3	0.00069	37800
B5	4.1	0.000476	117000
B6	5.6	0.000322	57700
B7	5	0.000705	142000
B8	5.6	0.000329	59100
B9	6.4	0.000271	42100
B10	76.9	0.000313	4070
B11	8.1	0.000798	98800
B12	344	0.002	5810
B13	12.2	0.0126	1.03e+06

Molecular target: human CD3 on T cells (Jurkat cells; human peripheral blood CD4+ and CD8+ T cells) (human, UniProt P07766 23-207)
Assay: cell-based or functional assay

Chain of human CD3 on T cells (Jurkat cells; human peripheral blood CD4+ and CD8+ T cells) (P07766 23-207): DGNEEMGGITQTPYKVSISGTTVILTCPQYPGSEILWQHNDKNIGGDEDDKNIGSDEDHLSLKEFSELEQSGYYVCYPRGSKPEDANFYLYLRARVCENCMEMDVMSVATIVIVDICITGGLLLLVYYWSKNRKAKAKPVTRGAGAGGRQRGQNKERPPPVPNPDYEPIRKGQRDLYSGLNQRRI

Binder	Upregulation of CD25 (%), CD4+T [%]	Upregulation of CD25 (%), CD8+T [%]	Upregulation of CD25 EC50, CD4+T [nM]	Upregulation of CD25 EC50, CD8+T [nM]	Upregulation of CD69 (%), CD4+T [%]	Upregulation of CD69 (%), CD8+T [%]	Upregulation of CD69 EC50, CD4+T [nM]	Upregulation of CD69 EC50, CD8+T [nM]
B14	29	38	3.65	3.65	55	69	7.4	2.32
B15	25	34	0.57	0.79	41	59	0.44	0.49

Molecular target: T1, human BCMA on cells (CHO-hBCMA clone …)
Assay: cell-based or functional assay

Binder	Killing EC50 (TDCC, LDH release; PBMC + RPMI-8226) [nM]
B14	13.6
B15	0.81
